This note sets out measurements from publication PMC7527988, “Cell-free biogenesis of bacterial division proto-rings that can constrict liposomes” (Communications Biology, 2020).

This experiment concerns the target T1, FtsZ labelled with Alexa Fluor 647 (E. coli, UniProt P0A9A6 1-383, Alexa Fluor 647 label, 0.9 ± 0.2 mol of fluorophore per mol of protein).
T1 construct: FtsZ, Escherichia coli cell division protein; called wild-type in the discussion; The label was added to the polymerised protein; also called FtsZ-A647
T1 sequence (looked up): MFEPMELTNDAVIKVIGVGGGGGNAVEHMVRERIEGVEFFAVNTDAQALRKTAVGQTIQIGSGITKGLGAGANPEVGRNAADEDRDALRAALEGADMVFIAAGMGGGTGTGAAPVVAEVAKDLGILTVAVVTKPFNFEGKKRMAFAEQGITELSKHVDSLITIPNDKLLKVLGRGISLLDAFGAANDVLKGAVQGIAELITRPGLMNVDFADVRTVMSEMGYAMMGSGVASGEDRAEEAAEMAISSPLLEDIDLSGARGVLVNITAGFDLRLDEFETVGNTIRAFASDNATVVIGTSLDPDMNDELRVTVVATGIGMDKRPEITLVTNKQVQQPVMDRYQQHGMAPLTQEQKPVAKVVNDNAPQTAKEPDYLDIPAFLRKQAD
The experiment can be described thus: recruitment to a supported lipid bilayer, fluorescence microscopy; 1 µM purified sZipA-A488 first incubated on the SLB with DGS-NTA lipids, washed; 3 µM purified FtsZ-A647 with 2 mM GTP added in minimal reaction buffer or PUREfrex2.0, with 50 g/L Ficoll70 or cell-free synthesized ZapA; spinning disk microscopy at room temperature. To be noted: both partners purified.

B1: soluble ZipA labelled with Alexa Fluor 488 (domain or fragment)
chain: not shown
modifications: Alexa Fluor 488 label, 0.9 ± 0.2 mol of fluorophore per mol of protein
notes: Held on the supported lipid bilayer through the His6-tag and DGS-NTA lipids; also called sZipA-A488; sZipA; not shown: His6, N-terminal, kept
As to B1, the binding result is listed as “binds”.
